Laboratory results from paper PMC7455699, “Rapid high-yield expression and purification of fully post-translationally modified recombinant clusterin and mutants” (Scientific Reports, 2020).

Biological target: the molecule itself
Assay: mass photometry; proteins at 1 nM in PBS (pH 7.4), 10 µl analysed over 10 min; monomer (a single disulphide-linked α-β structure) to dimer (two non-covalently associated α-β structures)

| Protein | percent of species in solution that is dimer | stoichiometry N |
| --- | --- | --- |
| clusterin purified from human plasma (natural protein, One 'monomer' is a single α-β structure joined by 5 disulfide bonds; The protein is N-glycosylated at six sites; also called pCLU; human plasma CLU) chain 1: DQTVSDNELQEMSNQGSKYVNKEIQNAVNGVKQIKTLIEKTNEERKTLLSNLEEAKKKKEDALNETRESETKLKELPGVCNETMMALWEECKPCLKQTCMKFYARVCRSGSGLVGRQLEEFLNQSSPFYFWMNGDRIDSLLENDRQQTHMLDVMQDHFSRASSIIDELFQDRFFTREPQDTYHYLPFSLPHRRPHFFFPKSRIVR chain 2: SLMPFSPYEPLNFHAMFQPFLEMIHEAQQAMDIHFHSPAFQHPPTEFIREGDDDRTVCREIRHNSTGCLRMKDQCDKCREILSVDCSTNNPSQAKLRRELDESLQVAERLTRKYNELLKSYQWKMLNTSSLLEQLNEQFNWVSRLANLTQGEDQYYLRVTTVASHTSDSDVPSGVTEVVVKLFDSDPITVTVPVEVSRKNPKFMETVAEKALQEYRKKHREE | ~60% | 2 |
| wild type recombinant human clusterin with a twin Streptag at the C-terminus of the α-chain (natural protein, The tag is separated from the inter-chain cleavage motif by a 4-glycine spacer; About 90-95% of the protein is cleaved into α- and β-chains, and it is glycosylated; also called rCLU-αC-ST; rCLU-ST; source: MEXi293E cells, transfected, secreted into protein-free medium, purified (Streptactin-XT); not shown: twin Streptag, C-terminal, kept) chain 1: SLMPFSPYEPLNFHAMFQPFLEMIHEAQQAMDIHFHSPAFQHPPTEFIREGDDDRTVCREIRHNSTGCLRMKDQCDKCREILSVDCSTNNPSQAKLRRELDESLQVAERLTRKYNELLKSYQWKMLNTSSLLEQLNEQFNWVSRLANLTQGEDQYYLRVTTVASHTSDSDVPSGVTEVVVKLFDSDPITVTVPVEVSRKNPKFMETVAEKALQEYRKKHREE chain 2: DQTVSDNELQEMSNQGSKYVNKEIQNAVNGVKQIKTLIEKTNEERKTLLSNLEEAKKKKEDALNETRESETKLKELPGVCNETMMALWEECKPCLKQTCMKFYARVCRSGSGLVGRQLEEFLNQSSPFYFWMNGDRIDSLLENDRQQTHMLDVMQDHFSRASSIIDELFQDRFFTREPQDTYHYLPFSLPHRRPHFFFPKSRIVR | ~60% | 2 |
| wild type recombinant human clusterin with the C-tag at the C-terminus of the β-chain (natural protein, The protein is cleaved into α- and β-chains and is glycosylated; also called rCLU-CT; source: MEXi293E cells, transfected, secreted into protein-free medium, purified (Capture Select C-tag column); not shown: C-tag (EPEA), C-terminal, kept) chain 1: SLMPFSPYEPLNFHAMFQPFLEMIHEAQQAMDIHFHSPAFQHPPTEFIREGDDDRTVCREIRHNSTGCLRMKDQCDKCREILSVDCSTNNPSQAKLRRELDESLQVAERLTRKYNELLKSYQWKMLNTSSLLEQLNEQFNWVSRLANLTQGEDQYYLRVTTVASHTSDSDVPSGVTEVVVKLFDSDPITVTVPVEVSRKNPKFMETVAEKALQEYRKKHREE chain 2: DQTVSDNELQEMSNQGSKYVNKEIQNAVNGVKQIKTLIEKTNEERKTLLSNLEEAKKKKEDALNETRESETKLKELPGVCNETMMALWEECKPCLKQTCMKFYARVCRSGSGLVGRQLEEFLNQSSPFYFWMNGDRIDSLLENDRQQTHMLDVMQDHFSRASSIIDELFQDRFFTREPQDTYHYLPFSLPHRRPHFFFPKSRIVR | ~60% | 2 |
